From patent US20260035450A1 (Novo Nordisk, published 2026)

T1: recombinant human ANGPTL3 (rhANGPTL3) (SEQ ID NO:1) (human, UniProt Q9Y5C1 17-460)
T1 sequence: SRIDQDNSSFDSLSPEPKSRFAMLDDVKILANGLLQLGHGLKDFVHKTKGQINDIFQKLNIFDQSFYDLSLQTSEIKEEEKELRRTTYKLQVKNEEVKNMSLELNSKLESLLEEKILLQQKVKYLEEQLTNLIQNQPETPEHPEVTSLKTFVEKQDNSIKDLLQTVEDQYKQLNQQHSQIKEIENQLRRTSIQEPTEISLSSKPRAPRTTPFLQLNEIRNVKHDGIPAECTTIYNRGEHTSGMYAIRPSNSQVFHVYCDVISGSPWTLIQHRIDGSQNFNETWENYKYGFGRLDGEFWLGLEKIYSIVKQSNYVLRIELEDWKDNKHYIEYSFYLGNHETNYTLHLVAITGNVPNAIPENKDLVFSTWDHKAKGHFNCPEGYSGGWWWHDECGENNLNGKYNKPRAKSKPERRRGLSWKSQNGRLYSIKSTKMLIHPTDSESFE


Target: T1, recombinant human ANGPTL3 (rhANGPTL3) …
Test: cell-based or functional assay

Row | Binder | Average relative IC50 (inhibition of rhANGPTL3-mediated LPL inhibition)
1 | tmAb1 (antibody, human IgG1, kappa) heavy: EVQLLESGGGLVQPGGSLRLSCAASGFNFRSYWMTWVRQAPGKGLEWVSSISSHSTYIYYADSVKGRFTISRDNSKNTLYLQMNSLRAEDTATYYCAREGWYDNWFDPWGQGTLVTVSSASTKGPSVFPLAPSSKSTSGGTAALGCLVKDYFPEPVTVSWNSGALTSGVHTFPAVLQSSGLYSLSSVVTVPSSSLGTQTYICNVNHKPSNTKVDKKVEPKSCDKTHTCPPCPAPEYLGGDSVFLFPPKPKDVLYITREPEVTCVVIDVSHEDPEVKFNWYVDGVEVHNAKTKPREEQYNSTYRVVSVLPVLHRDWLNGKEYKCKVSNKALPKPIEKTISKAKGQRREPQVYTLPPSREEMTKNQVSLWCLVKGFYPSDIAVEWESNGQPENNYKTTPPVLDSDGSFFLYSKLTVDKSRWQQGNVFSCSVMHEALHNHYTQKSLSLSP DKTHTCPPCPAPEYLGGDSVFLFPPKPKDVLYITREPEVTCVVIDVSHEDPEVKFNWYVDGVEVHNAKTKPREEQYNSTYRVVSVLPVLHRDWLNGKEYKCKVSNKALPKPIEKTISKAKGQRREPQVYTLPPSREEMTKNQVSLSCAVKGFYPSDIAVEWESNGQPENNYKTTPPVLDSDGSFFLVSKLTVDKSRWQQGNVFSCSVMHEALHNHYTQKSLSLSP light: EIVLTQSPGTLSLSPGERATLSCRASQNIRSPYLAWYQQKPGQAPRLLIYGVSSRAAGIPDRFSGSGSGTDFTLTISRLEPEDFAVYYCQQYDDHPYTFGQGTKLEIKRTVAAPSVFIFPPSDEQLKSGTASVVCLLNNFYPREAKVQWKVDNALQSGNSQESVTEQDSKDSTYSLSSTLTLSKADYEKHKVYACEVTHQGLSSPVTKSFNRGEC | 3.7 relative to evinacumab SIA
2 | tmAb4 (antibody, human IgG1, kappa) heavy: EVQLLESGGGLVQPGGSLRLSCAASGFNFESYWMTWVRQAPGKGLEWVSSISSHSTYIYYADSVKGRFTISRDNSKNTLYLQMNSLRAEDTATYYCAREGWYDNWNDPWGQGTLVTVSSASTKGPSVFPLAPSSKSTSGGTAALGCLVKDYFPEPVTVSWNSGALTSGVHTFPAVLQSSGLYSLSSVVTVPSSSLGTQTYICNVNHKPSNTKVDKKVEPKSCDKTHTCPPCPAPEYLGGDSVFLFPPKPKDVLYITREPEVTCVVIDVSHEDPEVKFNWYVDGVEVHNAKTKPREEQYNSTYRVVSVLPVLHRDWLNGKEYKCKVSNKALPKPIEKTISKAKGQRREPQVYTLPPSREEMTKNQVSLWCLVKGFYPSDIAVEWESNGQPENNYKTTPPVLDSDGSFFLYSKLTVDKSRWQQGNVFSCSVMHEALHNHYTQKSLSLSP DKTHTCPPCPAPEYLGGDSVFLFPPKPKDVLYITREPEVTCVVIDVSHEDPEVKFNWYVDGVEVHNAKTKPREEQYNSTYRVVSVLPVLHRDWLNGKEYKCKVSNKALPKPIEKTISKAKGQRREPQVYTLPPSREEMTKNQVSLSCAVKGFYPSDIAVEWESNGQPENNYKTTPPVLDSDGSFFLVSKLTVDKSRWQQGNVFSCSVMHEALHNHYTQKSLSLSP light: EIVLTQSPGTLSLSPGERATLSCRASQNIRSPYLAWYQQKPGQAPRLLIYGVSSRAAGIPDRFSGSGSGTDFTLTISRLEPEDFAVYYCQQYDDHPYTFGQGTKLEIKRTVAAPSVFIFPPSDEQLKSGTASVVCLLNNFYPREAKVQWKVDNALQSGNSQESVTEQDSKDSTYSLSSTLTLSKADYEKHKVYACEVTHQGLSSPVTKSFNRGEC | 1.3 relative to evinacumab SIA
3 | tmAb3 (antibody, human IgG1, kappa) heavy: EVQLLESGGGLVQPGGSLRLSCAASGFNFESYWMTWVRQAPGKGLEWVSSISSHSTYIYYADSVKGRFTISRDNSKNTLYLQMNSLRAEDTATYYCAREGWYDNWFDPWGQGTLVTVSSASTKGPSVFPLAPSSKSTSGGTAALGCLVKDYFPEPVTVSWNSGALTSGVHTFPAVLQSSGLYSLSSVVTVPSSSLGTQTYICNVNHKPSNTKVDKKVEPKSCDKTHTCPPCPAPEYLGGDSVFLFPPKPKDVLYITREPEVTCVVIDVSHEDPEVKFNWYVDGVEVHNAKTKPREEQYNSTYRVVSVLPVLHRDWLNGKEYKCKVSNKALPKPIEKTISKAKGQRREPQVYTLPPSREEMTKNQVSLWCLVKGFYPSDIAVEWESNGQPENNYKTTPPVLDSDGSFFLYSKLTVDKSRWQQGNVFSCSVMHEALHNHYTQKSLSLSP DKTHTCPPCPAPEYLGGDSVFLFPPKPKDVLYITREPEVTCVVIDVSHEDPEVKFNWYVDGVEVHNAKTKPREEQYNSTYRVVSVLPVLHRDWLNGKEYKCKVSNKALPKPIEKTISKAKGQRREPQVYTLPPSREEMTKNQVSLSCAVKGFYPSDIAVEWESNGQPENNYKTTPPVLDSDGSFFLVSKLTVDKSRWQQGNVFSCSVMHEALHNHYTQKSLSLSP light: EIVLTQSPGTLSLSPGERATLSCRASQNIRSPYLAWYQQKPGQAPRLLIYGVSSRAAGIPDRFSGSGSGTDFTLTISRLEPEDFAVYYCQQYDDHPYTFGQGTKLEIKRTVAAPSVFIFPPSDEQLKSGTASVVCLLNNFYPREAKVQWKVDNALQSGNSQESVTEQDSKDSTYSLSSTLTLSKADYEKHKVYACEVTHQGLSSPVTKSFNRGEC | 4.8 relative to evinacumab SIA
4 | tmAb2 (antibody, human IgG1, kappa) heavy: EVQLLESGGGLVQPGGSLRLSCAASDFNFRSYWMTWVRQAPGKGLEWVSSISSHSTYIYYADSVKGRFTISRDNSKNTLYLQMNSLRAEDTATYYCAREGWYDNWFDPWGQGTLVTVSSASTKGPSVFPLAPSSKSTSGGTAALGCLVKDYFPEPVTVSWNSGALTSGVHTFPAVLQSSGLYSLSSVVTVPSSSLGTQTYICNVNHKPSNTKVDKKVEPKSCDKTHTCPPCPAPEYLGGDSVFLFPPKPKDVLYITREPEVTCVVIDVSHEDPEVKFNWYVDGVEVHNAKTKPREEQYNSTYRVVSVLPVLHRDWLNGKEYKCKVSNKALPKPIEKTISKAKGQRREPQVYTLPPSREEMTKNQVSLWCLVKGFYPSDIAVEWESNGQPENNYKTTPPVLDSDGSFFLYSKLTVDKSRWQQGNVFSCSVMHEALHNHYTQKSLSLSP DKTHTCPPCPAPEYLGGDSVFLFPPKPKDVLYITREPEVTCVVIDVSHEDPEVKFNWYVDGVEVHNAKTKPREEQYNSTYRVVSVLPVLHRDWLNGKEYKCKVSNKALPKPIEKTISKAKGQRREPQVYTLPPSREEMTKNQVSLSCAVKGFYPSDIAVEWESNGQPENNYKTTPPVLDSDGSFFLVSKLTVDKSRWQQGNVFSCSVMHEALHNHYTQKSLSLSP light: EIVLTQSPGTLSLSPGERATLSCRASQNIRSPYLAWYQQKPGQAPRLLIYGVSSRAAGIPDRFSGSGSGTDFTLTISRLEPEDFAVYYCQQYDDHPYTFGQGTKLEIKRTVAAPSVFIFPPSDEQLKSGTASVVCLLNNFYPREAKVQWKVDNALQSGNSQESVTEQDSKDSTYSLSSTLTLSKADYEKHKVYACEVTHQGLSSPVTKSFNRGEC | 2.5 relative to evinacumab SIA
